Reference: the supplement of paper PMC12042874
± gives the uncertainty stated by the source.

Experiment: amyloid nucleation score (Sup35N fusion, yeast selection) (log enrichment); library NNK2; higher = more nucleation; inactive = no reads after selection
How it was run: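 Libraries of peptides of 20 random codons fused to Sup35N were expressed in psi-negative yeast and induced 24 hours with 100 μM copper sulfate. Selection was 7 days at 30°C on medium lacking adenine and uracil, and plasmid inserts were Illumina-sequenced before and after selection. Nucleation score is the DiMSum log enrichment of output over input reads, centred on the mode score of non-aggregating sequences, and sequences with under 100 input reads were left out.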

| Substance | amyloid nucleation score |
| --- | --- |
| HLPFMHPRPANLSHNKTSVS | -0.766 ± 0.4 |
| GPVVIVDNFQYDCLA | -0.109 ± 0.76 |
| SLEVCLIALDYGIQFLSTSA | 0.099 ± 0.18 |
| NPRTQF | -0.108 ± 0.28 |
| CNRGLKFAVGFKLLTIPTSL | inactive |
| IYDNMVDKFVSKGRCAVSPD | -0.066 ± 0.55 |
| RSCMASEYGT | -0.971 ± 0.64 |
| SLTLHLSEWGAISPN | -0.347 ± 1 |
| HFENLTHYTIVSTFFSLGVP | inactive |
| GPLFRFFRHRAFLQSTFSA | -0.342 ± 0.24 |
| ATTFKPAHLSRYMWLATYPV | 0.765 ± 0.41 |
| FAQPHGCNKMCFCSLRFQYL | 3.21 ± 0.12 |
| VMGEKIWSAWYTRDDQLCGS | 0.547 ± 0.36 |
| KGVLSGTWGGIRRIMTHVHD | 0.004 ± 0.36 |
| RWMRTSAGGCGSKVVWNLLG | 0.682 ± 0.24 |
| NTVKKLHLLQHHRVYVCATT | -0.965 ± 0.78 |
| TSGFRKHNVQRRLECTPGDW | 1.14 ± 0.31 |
| SNLFGKLYVCFERDPRRKMM | 3.32 ± 0.12 |
| SSVRCTYGLNCNQRL | 2.92 ± 0.076 |
| CVHLLSVSGWDFQYYFQAFN | 1.17 ± 0.13 |
| IANYSFELFII | 2.87 ± 0.1 |
| SAYGVVSSWMR | -0.266 ± 0.55 |

| Substance | amyloid nucleation score |
| --- | --- |
| SLSFIGQIQSIITNRLNSGV | 5.876 ± 0.039 |
| VCYIPYMLRSHLNALTFLSV | -0.492 ± 0.76 |
| LCSVQLRLMVAHNSRHLACM | 1.5 ± 0.25 |
| TFGRRATDNAASMPVSMRGR | 0.424 ± 0.64 |
| VCFGIKWSMLCWYFMDGGQQ | 2.05 ± 0.16 |
| VLVRS | 0.157 ± 1 |
| NEEWSFCKS | -0.165 ± 1 |
| CMGDNVIC | -0.954 ± 0.37 |
| YRGYAPIYLHLRSSYVPVAL | -0.319 ± 0.35 |
| VAYVQCD | 0.035 ± 0.39 |
| VLNGRTEWTKQVDFIYFITD | -0.464 ± 1.1 |
| ILIMGMILNSMYV | 0.516 ± 0.64 |
| GNLLVGAKSMVLSRFIGLYR | 2.16 ± 0.23 |
| YVPMQY | 0.382 ± 0.53 |
| NTVWSFSSEWLFKQQLVCVR | 0.091 ± 0.53 |
| FHSLRQLFMNTGVL | inactive |
| LHIYTKVHRSR | 3.59 ± 0.13 |
| RSSSSTMDMM | 0.85 ± 0.74 |
| NENKILSDL | -0.585 ± 0.36 |
| RLLLLPTSLLYSKSWCYSLL | -0.622 ± 0.27 |
| IPYSSPS | inactive |
| CMNGPFTLTRPTARGRIRC | 0.32 ± 0.51 |

| Substance | amyloid nucleation score |
| --- | --- |
| IYSFSASNW | 0.048 ± 0.79 |
| SACDGPGTQSRIVGWGHSCV | 1.33 ± 0.27 |
| VAQSRLT | 0.521 ± 0.8 |
| AKLEVQA | -0.978 ± 0.36 |
| VFLYAYYLNI | 0.039 ± 0.77 |
| KRNVLLLYYSCSAICSRYVV | -0.22 ± 0.63 |
| MMIPFVMYYRFDGYVKRHTG | -0.512 ± 0.76 |
| LSTANSNSRAVFIIKMRGLL | inactive |
| RPRAWI | 0.428 ± 0.44 |
| YTHVNRWTCCSSIEICDWSY | 6.957 ± 0.047 |
| TCLTFRFI | inactive |
| SFCCFFRSSLVFNFLVYISG | 0.081 ± 1.1 |
| ILRDDGPNYRFQIRLL | 4.647 ± 0.038 |
| RPFDHANRCRSAVYT | 1.63 ± 0.47 |
| SHEGGD | -0.856 ± 0.34 |
| GDYYFV | -1.19 ± 1 |
| ISVGRSYSV | 0.694 ± 0.24 |
| RVGVIFRKYWSFRYFSCKEN | -0.59 ± 1.1 |
| GYDVERDNFDCVVTKDELFW | -0.427 ± 0.21 |
| RVKYILMVQSLIFWNHILNV | inactive |
